Assay results from the supplement of paper PMC11246515.
± gives the standard deviation of the averaged measurements.

Experiment: total protein half-life in vivo (active degradation + dilution); higher = more stable protein
[1] = E. coli NCM3722 delta-clpP delta-lon delta-hslV, growth: N-lim chemostat, doubling time 6 h
[2] = E. coli NCM3722 delta-clpP, growth: N-lim chemostat, doubling time 6 h
[3] = E. coli NCM3722 delta-hslV, growth: N-lim chemostat, doubling time 6 h
[4] = E. coli NCM3722 delta-lon, growth: N-lim chemostat, doubling time 6 h
[5] = E. coli NCM3722 delta-smpB, growth: N-lim chemostat, doubling time 6 h
[6] = wild type E. coli NCM3722, growth: C-lim chemostat, doubling time 3 h
[7] = wild type E. coli NCM3722, growth: C-lim chemostat, doubling time 6 h
[8] = wild type E. coli NCM3722, growth: C-lim chemostat, doubling time 12 h
[9] = wild type E. coli NCM3722, growth: N-lim chemostat, doubling time 6 h
[10] = wild type E. coli NCM3722, growth: N-lim chemostat, doubling time 12 h
[11] = wild type E. coli NCM3722, growth: P-lim chemostat, doubling time 6 h
[12] = wild type E. coli NCM3722, growth: P-lim chemostat, doubling time 12 h

Sequence	total protein half-life in vivo [1]	total protein half-life in vivo [2]	total protein half-life in vivo [3]	total protein half-life in vivo [4]	total protein half-life in vivo [5]	total protein half-life in vivo [6]	total protein half-life in vivo [7]	total protein half-life in vivo [8]	total protein half-life in vivo [9]	total protein half-life in vivo [10]	total protein half-life in vivo [11]	total protein half-life in vivo [12]
MNKTEFYADLNRDFNALMAGETSFLATLANTSALLYERLTDINWAGFYLLEDDTLVLGPFQGKIACVRIPVGRGVCGTAVARNQVQRIEDVHVFDGHIACDAASNSEIVLPLVVKNQIIGVLDIDSTVFGRFTDEDEQGLRQLVAQLEKVLATTDYKKFFASVAG	4.82 ± 0.66 h	4.43 ± 0.32 h	4 ± 0.26 h	4.523 ± 0.034 h	4.22 ± 0.21 h	3.22 ± 0.55 h	5.38 ± 0.12 h	11.8 ± 3.1 h	4.33 ± 0.57 h	7.72 ± 0.91 h	5.8 ± 0.83 h	9.9 ± 0.11 h
MSTLGHQYDNSLVSNAFGFLRLPMNFQPYDSDADWVITGVPFDMATSGRAGGRHGPAAIRQVSTNLAWEHNRFPWNFDMRERLNVVDCGDLVYAFGDAREMSEKLQAHAEKLLAAGKRMLSFGGDHFVTLPLLRAHAKHFGKMALVHFDAHTDTYANGCEFDHGTMFYTAPKEGLIDPNHSVQIGIRTEFDKDNGFTVLDACQVNDRSVDDVIAQVKQIVGDMPVYLTFDIDCLDPAFAPGTGTPVIGGLTSDRAIKLVRGLKDLNIVGMDVVEVAPAYDQSEITALAAATLALEMLYIQAAKKGE	6.58 ± 1 h	5.85 ± 0.27 h	5.33 ± 0.076 h	7.38 ± 0.48 h	5.82 ± 0.58 h	2.9 ± 0.36 h	6.205 ± 0.019 h	11.8 ± 0.43 h	6.72 ± 0.96 h	11.9 h	6.0955 ± 0.0043 h	12.2 ± 1.3 h
MIFSVDKVRADFPVLSREVNGLPLAYLDSAASAQKPSQVIDAEAEFYRHGYAAVHRGIHTLSAQATEKMENVRKRASLFINARSAEELVFVRGTTEGINLVANSWGNSNVRAGDNIIISQMEHHANIVPWQMLCARVGAELRVIPLNPDGTLQLETLPTLFDEKTRLLAITHVSNVLGTENPLAEMITLAHQHGAKVLVDGAQAVMHHPVDVQALDCDFYVFSGHKLYGPTGIGILYVKEALLQEMPPWEGGGSMIATVSLSEGTTWTKAPWRFEAGTPNTGGIIGLGAALEYVSALGLNNIAEYEQNLMHYALSQLESVPDLTLYGPQNRLGVIAFNLGKHHAYDVGSFLDNYGIAVRTGHHCAMPLMAYYNVPAMCRASLAMYNTHEEVDRLVTGLQRIHRLLG	3.84 ± 0.34 h	3.43 ± 0.26 h	3.39 ± 0.22 h	3.44 ± 0.05 h	3.41 ± 0.12 h	3.19 ± 0.48 h		8.7 ± 0.18 h	3.38 ± 0.26 h	5.21 ± 0.034 h	6.38 ± 0.54 h	11.3 ± 1.4 h
MELYLDTANVAEVERLARIFPIAGVTTNPSIIAASKESIWEVLPRLQKAIGDEGILFAQTMSRDAQGMVEEAKRLRDAIPGIVVKIPVTSEGLAAIKILKKEGITTLGTAVYSAAQGLLAALAGAKYVAPYVNRVDAQGGDGIRTVQELQTLLEMHAPESMVLAASFKTPRQALDCLLAGCESITLPLDVAQQMLNTPAVESAIEKFEHDWNAAFGTTHL	4.61 ± 1.5 h			3.3 h	2.84 h	2.91 ± 0.4 h	3.9 ± 0.8 h	9.6 ± 0.48 h			5.37 h	9.74 ± 0.17 h
MNHSETITIECTINGMPFQLHAAPGTPLSELLREQGLLSVKQGCCVGECGACTVLVDGTAIDSCLYLAAWAEGKEIRTLEGEAKGGKLSHVQQAYAKSGAVQCGFCTPGLIMATTAMLAKPREKPLTITEIRRGLAGNLCRCTGYQMIVNTVLDCEKTK	4.15 h		1.29 h		1.2 h	1.46 ± 0.069 h	2.29 ± 0.2 h	3.5 ± 0.34 h				3.76 h
MVSALYAVLSALLLMKFSFDVVRLRMQYRVAYGDGGFSELQSAIRIHGNAVEYIPIAIVLMLFMEMNGAETWMVHICGIVLLAGRLMHYYGFHHRLFRWRRSGMSATWCALLLMVLANLWYMPWELVFSLR	> 8 h		> 8 h	6.32 h	7.19 ± 0.64 h	3.51 ± 0.12 h	7.27 h	13.7 h		> 16 h	6.53 ± 0.12 h	13.1 ± 1.1 h
MLTKDLSITFCGVKFPNPFCLSSSPVGNCYEMCAKAYDTGWGGVVFKTIGFFIANEVSPRFDHLVKEDTGFIGFKNMEQIAEHPLEENLAALRRLKEDYPDKVLIASIMGENEQQWEELARLVQEAGADMIECNFSCPQMTSHAMGSDVGQSPELVEKYCRAVKRGSTLPMLAKMTPNIGDMCEVALAAKRGGADGIAAINTVKSITNIDLNQKIGMPIVNGKSSISGYSGKAVKPIALRFIQQMRTHPELRDFPISGIGGIETWEDAAEFLLLGAATLQVTTGIMQYGYRIVEDMASGLSHYLADQGFDSLQEMVGLANNNIVPAEDLDRSYIVYPRINLDKCVGCGRCYISCYDGGHQAMEWSEKTRTPHCNTEKCVGCLLCGHVCPVGCIELGEVKFKKGEKEHPVTL	4.6 h					0.869 ± 0.52 h	2.35 h	1.67 ± 0.23 h				
MSEVEFSHEYWMRHALTLAKRAWDEREVPVGAVLVHNNRVIGEGWNRPIGRHDPTAHAEIMALRQGGLVMQNYRLIDATLYVTLEPCVMCAGAMIHSRIGRVVFGARDAKTGAAGSLMDVLHHPGMNHRVEITEGILADECAALLSDFFRMRRQEIKAQKKAQSSTD	5.35 ± 0.49 h		> 8 h	4.63 h							> 8 h	10.7 ± 0.33 h
